What all share (assay): cell_activity; yeast 37 C; 30 C: 0.5
Holding throughout (conditions): tags: NLS, 6xHis

Data set [1] addresses T1, ZM6.22v2(J7) (artificial).
T1 chain: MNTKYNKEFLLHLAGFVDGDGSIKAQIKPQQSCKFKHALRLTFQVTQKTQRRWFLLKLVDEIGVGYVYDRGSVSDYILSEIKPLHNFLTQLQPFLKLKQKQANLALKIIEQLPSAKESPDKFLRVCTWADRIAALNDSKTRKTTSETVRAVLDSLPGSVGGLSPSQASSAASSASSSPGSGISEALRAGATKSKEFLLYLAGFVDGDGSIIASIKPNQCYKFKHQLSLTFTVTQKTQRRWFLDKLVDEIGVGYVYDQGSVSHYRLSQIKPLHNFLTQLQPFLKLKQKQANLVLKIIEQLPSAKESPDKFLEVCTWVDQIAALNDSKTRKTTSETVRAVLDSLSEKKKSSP
The protocol: (§1) A 3 mL culture of selective media (MP Biomedical) was inoculated with a single colony of the yeast screening strain and grown at 30° C. overnight. On the following day, a 50 ml YPD culture (MP Biomedical) was started with 2 ml of the overnight culture and grown at 30° C. overnight. On the following day, the cells were harvested by centrifugation at 4000 rpm. The cells were resuspended in 100 ml ice cold water and centrifuged again. The cells were then washed in 1.2 M sorbitol, followed by treatment with 2 ml of 10 mM Tris pH 8.0, 1 mM EDTA, 100 mM Lithium acetate, 10 mM DTT, 0.6M sorbitol for 30 minutes at 30° C. with shaking. The cells were recovered by centrifugation, washed in 40 ml 1.2M sorbitol and finally resuspended in 250 microliters of 1.2M sorbitol. 50 microliter aliquots were transferred to test tubes on ice. Up to 5 microliters of DNA (100-500 nanograms) were added. The suspension was transferred to a 0.2 cm electroporation cuvette, on ice. Electroporation was performed with a pulse charge at 1.5 kV, 200 ohms, 25 microF (pulse time of 5 milliseconds). 1 mL YPD media (MP Biomedical) was added and the cells were allowed to recover at 30° C. for 1-2 hr. The cells were centrifuged, resuspended in 100 uL 1M sorbitol and plated on selective media lacking leucine and containing 2% galactose. The resulting yeast colonies were incubated at various temperatures ranging from 22 to 37 degrees Celsius for 7-10 days. I-CreI and meganucleases derived from it have maximal activity at or above 37 degrees Celsius. Screening was performed at a range of temperatures from 22 to 37 degrees in order to observe increases in activity at lower temperatures which are relevant to certain biological systems (eg. plant cells, plant cell cultures, etc). At that time the red/white sectoring phenotype, indicative of meganuclease activity was observed. Colonies with increased white sectoring over the parental meganuclease (indicating colonies expressing a meganuclease with increased meganuclease activity), also referred to as “hits” and sometimes completely white, were isolated for further analysis.
(§2) A total of 13 ZM6.22v2 variants with increased activity were confirmed in the yeast system (as described in Example 6). Increased activity was observed across a range of temperatures: 28 degrees Celsius, 30 degrees Celsius and 37 degrees Celsius, as shown in Table 16.

In data set [2] the target is T2, ZM6.22v2(J4) (artificial).
T2 chain: T1 chain with L56D, A105V, R124E, A129V, R131Q, Q237R, Q318R
How it is done:
as §1, §2

In data set [3] the target is T3, ZM6.22v2(I8) (artificial).
T3 chain: T1 chain with L56D, A105V, R131Q, E311R
How it is done: as §1, §2

In data set [4] the target is T4, ZM6.22v2(J3) (artificial).
T4 chain: T1 chain with H12Y, Q50R, A105V, R124E, A129V, Q237R, E311R, V316A, Q318R
The protocol:
as §1, §2

In data set [5] the target is T5, ZM6.22v2(J5) (artificial).
T5 chain: T1 chain with L56D, A129V, R131Q, D153L, E311R
How it is done: as §1, §2

Positions count from the first letter of the chain named.

B1: ZM6.22v2 recognition site (dsDNA)
DNA 1: ATTGCTCTCTCACATACTTTTA
DNA 2: TAAAAGTATGTGAGAGAGCAAT
Regarding B1, the activity was found to be 3 score 0-4 in data set [1]; 3.5 score 0-4 in data set [2]; 2.5 score 0-4 in data set [3]; 3 score 0-4 in data set [4]; 4 score 0-4 in data set [5].
